# Results published in patent US11155602B2, “Polypeptides targeting HIV fusion” (priority 2015, dated 2021).
# Positions count from the first letter of the chain named.
# B1: 107 (protein)
# chain: MGVSDVPRDLEVVAATPTSLLISWDEHTDIYRYYRITYGETGGNSPVQEFTVPAMEHTATISGLKPGVDYTITVYAVTHVYPIMIHQYPISINYRTEIDKPSQHHHHHH
# modifications: Adnectin
# B2: 101 (protein)
# chain: MASTSGSASYLIPSDLEVVAATPTSLSIYWYPVASTIINFRITYVETGGNSPVQEFTVPGSKSTATISGLKPGVDYTITVYAVHYEQKYSEYWIGHPISINYRTEGSGSHHHHHH
# modifications: Adnectin
# B3: 99 (protein)
# chain: MGHHHHHHGGVSDVPRDLEVVAATPTSLLISWDAPAVTVHSYHIQYWPLGSYQRYQVFSVPGSKSTATISGLKPGVEYQIRVYAETGGADSDQSFGWIQIGYRTPES
# modifications: Adnectin
# B4: 112 (protein)
# chain: B3 chain with G88R, A89G, D90E, F95L
# modifications: Adnectin
# B5: 110 (protein)
# chain: B3 chain with G88R, A89G, D90E, F95L, P105E
# modifications: Adnectin
# B6: 113 (protein)
# chain: B3 chain with G88R, A89G, D90E
# modifications: Adnectin
# B7: 114 (protein)
# chain: B3 chain with S41A, S51F, R54G, G88L, A89G, S91A, D92H, F95L
# modifications: Adnectin
# B8: 111 (protein)
# chain: B3 chain with G88R, A89G, D90E, P105E
# modifications: Adnectin
# B9: 95 (protein)
# chain: MASTSGVSDVPRDLEVVAATPTSLLISWDAPAVTVHSYHIQYWPLGWYQRYQVFSVPGSKSTATISGLKPEVEYQIRVYAETGGGGSQQSFGWIQIGYRTEGSGSHHHHHH
# modifications: Adnectin
# B10: 105 (protein)
# chain: MASTSGEFYHTKYPYDLEVVAATPTSLEISWRSPTRDWQWFRITYGETGGNSPVQEFTVAGPYRNAIISGLKPGVDYTITVYADVYMPSEGGLVVDTYHPISINYRTEGSGSHHHHHH
# modifications: Adnectin
# B11: 103 (protein)
# chain: MASTSGYTSYPIPYDLEVVAATPTSLYIHWYWIAATIISFRITYGETGGNSPVQEFTVPAGQDHATISGLKPGVDYTITVYAVHYEEEYSEFWTGHPISINYRTEGSGSHHHHHH
# modifications: Adnectin
# B12: 108 (protein)
# chain: MASTSGVSDVPRDLEVVAATPTSLLISWDAPAVTVLEYQIDYHPAAVWHALQRFTVPGSKSTATISGLKPGVHYKISVTATTHADNESIMWHPISIYYRTEGSGSHHHHHH
# modifications: Adnectin
# B13: 102 (protein)
# chain: MASTSGSSPYLMPYDLEVVAATPTSLFIRWYGSASSIVKFRITYGETGGNSPVQEFTVGGTQLHATISGLKPGVDYTITVYAVHFEHKYSELWIGHPISINYRTEGSGSHHHHHH
# modifications: Adnectin
# B14: 106 (protein)
# chain: MASTSGQAYPEYYFVDLEVVAATPTSLLISWSKPYYNAYSYRITYGETGGNSPVQEFTVLGHDTRAVISGLKPGVDYTITVYAMFIEYIDQEIWHAHPISINYRTEGSGSHHHHHH
# modifications: Adnectin
# B15: 96 (protein)
# chain: MGVSDVPRDLEVVAATPTSLLISWDAPAVTVQSYHIQYWPLGSYQRYQVFSVPGSKSTATISGLKPGVEYQIRVYAETGGADSDQSMGWIQIGYRTEGDKPSQHHHHHH
# modifications: Adnectin
# B16: 98 (protein)
# chain: B15 chain with Q32H
# modifications: Adnectin
# B17: 97 (protein)
# chain: B15 chain with Q32H, S43W, G79R, G80S, A81G, D82L, S83A, Q85E, M87F
# modifications: Adnectin
# B18: 109 (protein)
# chain: MGVSDVPRDLEVVAATPTSLLISWDYPTVTPRYYRITYGETGGNSPVQEFTVPEYIGTATISGLKPGVDYTITVYAVTNDTTIYSISRPISINYRTEIDKPSQHHHHHH
# modifications: Adnectin
# B19: 100 (protein)
# chain: MASTSGSSSYLMPSDLEVVAATPTSLYIHWYPIASTIINFRITYGETGGNSPVQEFTVPGSQVHATISGLKPGVDYTITVYAVHYEHKYSELWMGHPISINYRTEGSGSHHHHHH
# modifications: Adnectin
# B20: 104 (protein)
# chain: MASTSGTHWFYSIPHDLEVVAATPTSLTIAWEPPHHTAMGYRITYGETGGNSPVQEFTVPGGYTTAYISGLKPGVDYTITVYAAYYEREYSEHWISHPISINYRTEGSGSHHHHHH
# modifications: Adnectin
# B21: 364 (protein)
# chain: MGHHHHHHGGSVSDVPRDLEVVAATPTSLLISWEYKVHPYRYYRITYGETGGNSPVQEFTVPSVLSTATISGLKPGVDYTITVYAVTYGDPSAPISINYRTEID
# modifications: Adnectin
# B22: 368 (protein)
# chain: B21 chain with D90T, P91D
# modifications: Adnectin
# B23: 369 (protein)
# chain: B21 chain
# modifications: Adnectin
# B24: 371 (protein)
# chain: B21 chain with D90I, P91D, A93T
# modifications: Adnectin
# B25: 366 (protein)
# chain: B21 chain with H38Y, P39H, Y40N, P91D
# modifications: Adnectin
# B26: 370 (protein)
# chain: B21 chain with P91D, A93K
# modifications: Adnectin
# B27: 365 (protein)
# chain: B21 chain with H38S, P39G, P91D
# modifications: Adnectin
# B28: 367 (protein)
# chain: B21 chain with T67S, T69Q, I70L, P91D
# modifications: Adnectin
# B29: 139 (protein)
# chain: MGVSDVPRDLEVVAATPTSLLISWEDPEAAVRYYRITYGETGGNSPVQEFTVPINDLHSYLSGLKPGVDYTITVYAVTEATVMYVLDEPISINYRTEIDKPSQHHHHHH
# modifications: Adnectin
# Tested on: NL-Rluc virus
# Assay: Combinectin potency assay: antiviral EC50, NL-Rluc virus in MT-2 cells, luciferase readout
# Type: cell-based, HIV-1
# Conditions: Anti-CD4 Adnectin, Table 2
# Procedure: MT-2 cells, HEK 293T cells and the proviral DNA clone of […] were obtained from the NIH AIDS Research and Reference Reagent Program. MT-2 cells were propagated in RPMI 1640 medium supplemented with 10% heat-inactivated fetal bovine serum (FBS), 10 mM HEPES buffer pH 7.55, and 2 mM L-glutamine. HEK 293T cells were propagated in DMEM media supplemented with 10% heat-inactivated FBS, 10 mM HEPES buffer pH 7.55 and 2 mM L-glutamine. Recombinant NL-Rluc virus, in which a section of the nef gene from the proviral clone of NL4-3 was replaced with the Renilla luciferase gene, was constructed at Bristol-Myers Squibb. The replication-competent virus was harvested 3 days after transfection of HEK 293T cells with the modified pNL-Rluc proviral clone. Transfections were performed using Lipofectamine Plus (Invitrogen, Carlsbad, Calif.), according to manufacturer's instruction. Virus was titered in MT-2 cells using luciferase enzyme activity as a biomarker. The NL-Rluc virus used to infect MT-2 cells a multiplicity of 0.01 for 1 hour before adding to the peptides in 96-well plates. Peptides were serially diluted three-fold and 11 concentrations were plated in triplicate. After 4-5 days of incubation, cells were processed and quantitated for virus growth by the amount of expressed luciferase. Luciferase was quantitated using the Dual Luciferase kit from Promega (Madison, Wis.), with modifications to the manufacturer's protocol. The diluted Passive Lysis solution was pre-mixed with the re-suspended Luciferase Assay Reagent and then re-suspended in STOP & GLO® Substrate (2:1:1 ratio). A total of […] of the mixture was added to each aspirated well on assay plates and luciferase activity was measured immediately on a Wallac TriLux (Perkin-Elmer, Waltham, Mass.). The 50% effective concentration (EC50) was calculated by comparing the amount of luciferase produced in the presence of inhibitory peptide compared to wells where no peptide was added.
row,Molecule,EC50
1,B1,500 nM
2,B2,> 400 nM
3,B3,8.5 nM
4,B4,18.4 nM
5,B5,28.6 nM
6,B6,15.4 nM
7,B7,12.6 nM
8,B8,20 nM
9,B9,48 nM
10,B10,300 nM
11,B11,255 nM
12,B12,170 nM
13,B13,> 5500 nM
14,B14,2400 nM
15,B15,7.8 nM
16,B16,4.9 nM
17,B17,11 nM
18,B18,320 nM
19,B19,6 nM
20,B20,500 nM

# Same assay, conditions: Anti-N17 Adnectin, Table 3
row,Molecule,EC50
1,B21,89 nM
2,B22,62 nM
3,B23,155 nM
4,B24,114 nM
5,B25,> 1000 nM
6,B26,335 nM
7,B27,> 1000 nM
8,B28,300 nM
9,B29,130 nM
